In general, stoichiometry N refers to the number of molecules, sites or subunits per partner or assembly.

The target in experiment [1] is TOAC labeled wild-type PLB. Put plainly: SDS-PAGE.
Experiment [2] has as its target T1, Wild-type Phospholamban, P61014.
T1 chain: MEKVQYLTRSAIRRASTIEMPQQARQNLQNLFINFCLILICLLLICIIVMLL
Put plainly: SDS-PAGE. Particulars: remark: other sources report otherwise.

The molecule TOAC labeled wild-type PLB had a stoichiometry N in experiment [1] of 5.

B1: Wild-type Phospholamban, P61014 1-52 (natural protein)
chain: T1 chain
Molecule B1 had a stoichiometry N in experiment [2] of 5.

The values above are taken from PMC3273594.
